From US20230242657A1

Assays:
[1] = target: human OX40 on the cell surface (activated human T cells; Jurkat-OX40-NF-kB-Luc cells overexpressing human OX40) (human) (UniProt P43489); assay: cell-based or functional assay
[2] = target: recombinant OX40-Fc protein (R & D, Cat 3388-OX) (human) (UniProt P43489); assay: blocking ELISA: plate-coated OX40-Fc, serially diluted antibody, then OX40L at 50 ng/ml, bound OX40L detected
recombinant OX40-Fc protein (R & D, Cat 3388-OX) (human), sequence (P43489 29-214): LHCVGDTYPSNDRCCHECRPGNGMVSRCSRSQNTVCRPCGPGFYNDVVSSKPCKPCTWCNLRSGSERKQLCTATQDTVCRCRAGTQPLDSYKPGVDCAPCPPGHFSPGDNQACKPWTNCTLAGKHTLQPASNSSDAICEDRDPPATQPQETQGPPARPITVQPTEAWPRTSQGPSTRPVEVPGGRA

human OX40 on the cell surface (activated human T cells; Jurkat-OX40-NF-kB-Luc cells overexpressing human OX40) (human), sequence (P43489 29-277): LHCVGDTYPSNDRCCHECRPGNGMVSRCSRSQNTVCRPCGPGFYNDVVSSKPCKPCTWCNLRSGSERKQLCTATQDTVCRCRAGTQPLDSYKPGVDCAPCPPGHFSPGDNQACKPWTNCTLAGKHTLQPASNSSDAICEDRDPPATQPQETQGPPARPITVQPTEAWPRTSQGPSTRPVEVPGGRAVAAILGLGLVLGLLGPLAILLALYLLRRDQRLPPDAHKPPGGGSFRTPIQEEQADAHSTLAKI

IC50 of blocking the OX40L-mediated T cell activation (IFNy secretion) [1]: 1.1 nM
IC50 [2]: 0.3 nM
maximum inhibition rate [2]: 50%
B1: GBR830 (reference OX40 antagonist antibody) (antibody, INN chains, looked up, V domains shown)
VH: QVTLKESGPALVKPTQTLTLTCSFSGFSLSTSGMGVGWIRQPPGKALEWIAHIWWDDDKYYNTALKTRLTISKDTSKNQVVLTMTNMDPVDTATYYCARIDWDGFAYWGQGTLVTVSS
VL: EIVLTQSPATLSLSPGERATLSCRASSSVSYMHWYQQKPGQAPRPWIYATSNRATGIPARFSGSGSGTDYTLTISSLEPEDFAVYYCQQWSSNPWTFGQGTKVEIK
